Source: patent US20230192818A1
Positions count from the first letter of the chain named.

Target: biotinylated SARS-CoV-2 S1 variant P.1 (Example 5) (SARS-CoV-2) (UniProt P0DTC2)
Test: phage ELISA screening

B1: 13-3 (antibody, V domains shown)
VH: QVQLVESGGGVVQPGRSLRLSCAASGFSFNNHAMHWVRQAPGKGLEWVAVISYDGSDKYYADSVKGRFTISRDNSKNTLYLQMNSLRAEDTAVYYCARNLLRGYGMDVWGQGTLVTVSS
VL: DIQMTQSPSSLSASVGDRVTITCRASQSIGDYLNWYQQKPGKAPKLLIYEASSLQSGVPSRFSGSGSGTDFTLTISSLQPEDFATYYCLHTYLPPYSFGQGTKVEIK
With B1 the ELISA was 19.5.

B2: 13-4 (antibody, V domains shown)
VH: QVQLVESGGGVVQPGRSLRLSCAASGFAFDDYAMHWVRQAPGKGLEWVAVISYDGSNKYYADSVKGRFTISRDNSKNTLYLQMNSLRAEDTAVYYCATLGYGDYPDYWGQGTLVTVSS
VL: B1 VL with G30T, D31R, E50A, L89Q, H90Q, L93N, P94F, Y96H, S97T
B2 showed an ELISA of 18.9.

B3: 13-5 (antibody, V domains shown)
VH: QVQLVESGGGVVQPGRSLRLSCAASGFIFRSYAMHWVRQAPGKGLEWVAVISYDGSSKYYADSVKGRFTISRDNSKNTLYLQMNSLRAEDTAVYYCARPLGGGYQDAFDIWGQGTLVTVSS
VL: EIVLTQSPATLSLSPGERATLSCRASQSIGSYLAWYQQKPGQAPRLLIYDVSNRATGIPARFSGSGSGTDFTLTISSFEPEDFAVYYCQQRHHWPPVTFGGGTKVEIK
Work on B3 yielded an ELISA of 10.3.
